This series deals with T1, MORC2 dephosphorylated (wild-type) (Homo sapiens, UniProt Q9Y6X9 1-1032).
T1 sequence: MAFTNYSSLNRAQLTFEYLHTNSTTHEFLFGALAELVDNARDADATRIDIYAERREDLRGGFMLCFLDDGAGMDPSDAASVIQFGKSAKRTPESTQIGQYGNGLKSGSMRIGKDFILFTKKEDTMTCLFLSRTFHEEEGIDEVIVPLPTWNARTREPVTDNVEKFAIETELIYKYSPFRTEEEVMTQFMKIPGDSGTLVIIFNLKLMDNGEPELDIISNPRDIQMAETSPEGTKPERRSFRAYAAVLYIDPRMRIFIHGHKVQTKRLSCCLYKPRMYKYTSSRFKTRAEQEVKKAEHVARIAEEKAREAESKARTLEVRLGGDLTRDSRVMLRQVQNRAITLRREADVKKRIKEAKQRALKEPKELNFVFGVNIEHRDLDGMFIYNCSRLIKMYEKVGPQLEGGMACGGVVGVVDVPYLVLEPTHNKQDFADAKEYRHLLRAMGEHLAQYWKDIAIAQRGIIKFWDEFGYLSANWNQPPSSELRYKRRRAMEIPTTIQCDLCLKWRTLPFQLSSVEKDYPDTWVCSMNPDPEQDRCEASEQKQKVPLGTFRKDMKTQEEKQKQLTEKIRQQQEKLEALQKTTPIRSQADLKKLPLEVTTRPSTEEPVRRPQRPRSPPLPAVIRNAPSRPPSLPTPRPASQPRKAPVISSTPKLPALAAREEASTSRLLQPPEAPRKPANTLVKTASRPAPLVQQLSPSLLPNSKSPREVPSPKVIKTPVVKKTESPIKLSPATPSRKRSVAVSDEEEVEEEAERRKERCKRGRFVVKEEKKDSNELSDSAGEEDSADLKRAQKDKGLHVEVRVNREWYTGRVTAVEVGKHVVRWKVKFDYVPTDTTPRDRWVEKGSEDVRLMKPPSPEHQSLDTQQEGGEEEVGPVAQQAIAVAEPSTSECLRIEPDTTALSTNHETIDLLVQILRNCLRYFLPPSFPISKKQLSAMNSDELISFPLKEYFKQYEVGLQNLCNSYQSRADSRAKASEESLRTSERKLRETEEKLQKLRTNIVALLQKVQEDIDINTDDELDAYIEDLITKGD
Nature of the series: fluorescence anisotropy; apo; second listing ('5 or less'); FA/EMSA: 50 mM NaCl, 3 mM MgCl2, 20 mM Na-HEPES pH 7.4, 1 mM TCEP, 10% glycerol, 0.025 mM ZnCl2, 50 ug/ml BSA, room temperature; 1 nM nucleic acid (FA) or 20 nM DNA (EMSA). Conditions: protein: recombinant; tags: tag removed by TEV; chain copies: 2; label: 5'-6-FAM; blunt.

The Kd is the constant that tells how readily two partners part at equilibrium.

Bounds are passed on as bounds.

B1: Random 35mer dsDNA (dsDNA)
DNA 1: ATAGGGTCCATCAGAATTCGGATGAACTCGGTGTG
DNA 2: CACACCGAGTTCATCCGAATTCTGATGGACCCTAT
As to B1, the equilibrium dissociation constant (Kd) was < 5 nM.
